Data from patent publication US20220089698A1.
Where a chain is given by its changes, count along the chain named.

B1: 3.1.9-1 (antibody, human IgG1, kappa, V domains shown)
VH: QVQLLQSGAAVTKPGASVRVSCEASGYNIRDYFIHWWRQAPGQGLQWVGWINPKTGQPNNPRQFQGRVSLTRHASWDFDTFSFYMDLKALRSDDTAVYFCARQRSDYWDFDVWGSGTQVTVSS
VL: DIQMTQSPSSLSARVGDTATITCQANGYLNWYQQRRGKAPKLLIYDGSKLERGVPARFSGRRWGQEYNLTINNLQPEDVATYFCQVYEFFGPGTRLDLKR
B2: 1.1.104-1 (antibody, human IgG1, kappa, V domains shown)
VH: B1 VH
VL: B1 VL with R14S, A56S, N68T, V79I
B3: 2.3.12-1 (antibody, human IgG1, kappa, V domains shown)
VH: B1 VH with Q3H, L5S, L90V, V97I
VL: B1 VL with N68I
B4: 2.3.13-1 (antibody, human IgG1, kappa, V domains shown)
VH: B1 VH with Q3H, L5S, L90V, V97I
VL: B1 VL with T18R, R61S, N68I, N72S, N73S
B5: 1.1.117-1 (antibody, human IgG1, kappa, V domains shown)
VH: B1 VH
VL: B1 VL with R14S, A56S, N68I, V79I
B6: 3.1.13-1 (antibody, human IgG1, kappa, V domains shown)
VH: B1 VH
VL: B1 VL with T18R, R61S, N68I, N72S, N73S
B7: 3.1.17-1 (antibody, human IgG1, kappa, V domains shown)
VH: B1 VH
VL: B1 VL with N68H
B8: 2.2.18-1 (antibody, human IgG1, kappa, V domains shown)
VH: B1 VH with Q3H, L5S, N28K, Y32H, L90V, V97I
VL: B1 VL with T18R, R61S, N68H, N72S, N73S
B9: 2.3.15-1 (antibody, human IgG1, kappa, V domains shown)
VH: B1 VH with Q3H, L5S, L90V, V97I
VL: B1 VL with N68T
B10: 2.3.7-1 (antibody, human IgG1, kappa, V domains shown)
VH: B1 VH with Q3H, L5S, L90V, V97I
VL: B1 VL with T18R, R61S, N68T, N72S, N73S
B11: 3.1.18-1 (antibody, human IgG1, kappa, V domains shown)
VH: B1 VH
VL: B1 VL with T18R, R61S, N68H, N72S, N73S
B12: 1.1.118-1 (antibody, human IgG1, kappa, V domains shown)
VH: B1 VH
VL: B1 VL with R14S, T18R, A56S, R61S, N68I, N72S, N73S, V79I
B13: 1.1.78-1 (antibody, human IgG1, kappa, V domains shown)
VH: B1 VH
VL: B1 VL with R14S, A56S, N68H, V79I
B14: 1.1.119-1 (antibody, human IgG1, kappa, V domains shown)
VH: B1 VH
VL: B1 VL with R14S, T18R, A56S, R61S, N68T, N72S, N73S, V79I
B15: 2.3.18-1 (antibody, human IgG1, kappa, V domains shown)
VH: B1 VH with Q3H, L5S, L90V, V97I
VL: B1 VL with T18R, R61S, N68H, N72S, N73S
B16: 2.3.9-1 (antibody, human IgG1, kappa, V domains shown)
VH: B1 VH with Q3H, L5S, L90V, V97I
VL: B1 VL
B17: 2.2.13-1 (antibody, human IgG1, kappa, V domains shown)
VH: B1 VH with Q3H, L5S, N28K, Y32H, L90V, V97I
VL: B1 VL with T18R, R61S, N68I, N72S, N73S
B18: 3.1.7-1 (antibody, human IgG1, kappa, V domains shown)
VH: B1 VH
VL: B1 VL with T18R, R61S, N68T, N72S, N73S
B19: 3.1.15-1 (antibody, human IgG1, kappa, V domains shown)
VH: B1 VH
VL: B1 VL with N68T
B20: 2.2.7-1 (antibody, human IgG1, kappa, V domains shown)
VH: B1 VH with Q3H, L5S, N28K, Y32H, L90V, V97I
VL: B1 VL with T18R, R61S, N68T, N72S, N73S
B21: 2.3.17-1 (antibody, human IgG1, kappa, V domains shown)
VH: B1 VH with Q3H, L5S, L90V, V97I
VL: B1 VL with N68H
B22: 2.2.12-1 (antibody, human IgG1, kappa, V domains shown)
VH: B1 VH with Q3H, L5S, N28K, Y32H, L90V, V97I
VL: B1 VL with N68I
B23: 2.2.9-1 (antibody, human IgG1, kappa, V domains shown)
VH: B1 VH with Q3H, L5S, N28K, Y32H, L90V, V97I
VL: B1 VL
B24: 3.1.12-1 (antibody, human IgG1, kappa, V domains shown)
VH: B1 VH
VL: B1 VL with N68I
B25: 2.2.15-1 (antibody, human IgG1, kappa, V domains shown)
VH: B1 VH with Q3H, L5S, N28K, Y32H, L90V, V97I
VL: B1 VL with N68T
B26: 2.2.17-1 (antibody, human IgG1, kappa, V domains shown)
VH: B1 VH with Q3H, L5S, N28K, Y32H, L90V, V97I
VL: B1 VL with N68H
B27: 1.1.102-1 (antibody, human IgG1, kappa, V domains shown)
VH: B1 VH
VL: B1 VL with R14S, T18R, A56S, R61S, N68H, N72S, N73S, V79I
B28: 1.35.35-1 (antibody, human IgG1, kappa, V domains shown)
VH: QVQLVQSGAEVKKPGASVRVSCKASGYNIRDYFMHWWRQAPGQGLQWVGWINPKTGQPNNPRQFQGRVTMTRHASWDFDTFSFYMDLSRLRSDDTATYFCARQRTDYWDFDVWGQGTMVTVSS
VL: DIQMTQSPSSLSASVGDRVTITCQANGYLNWYQQKPGKAPKLLIYDGSNLETGVPSRFSGSRWGQEYTLTISSLQPEDIATYFCQVYEFVGPGTNLDIKR
B29: 1.36.35-1 (antibody, human IgG1, kappa, V domains shown)
VH: B28 VH with F83A
VL: B28 VL
B30: 1.13.17-1 (antibody, human IgG1, kappa, V domains shown)
VH: B1 VH with I34M, W37V
VL: B1 VL with R14S, A19V, A56S, V79I
B31: 1.14.17-1 (antibody, human IgG1, kappa, V domains shown)
VH: B1 VH with I34M, W37V, F83A
VL: B1 VL with R14S, A19V, A56S, V79I
B32: 1.34.35-1 (antibody, human IgG1, kappa, V domains shown)
VH: B1 VH with L5V, A10E, T12K, E23K, S69T, S105T
VL: B28 VL
B33: 1.1.35-1 (antibody, human IgG1, kappa, V domains shown)
VH: B1 VH
VL: B28 VL
B34: 1.31.35-1 (antibody, human IgG1, kappa, V domains shown)
VH: B1 VH with L5V, A10E, V97T
VL: B28 VL
B35: 1.12.17-1 (antibody, human IgG1, kappa, V domains shown)
VH: B1 VH with W37V
VL: B1 VL with R14S, A19V, A56S, V79I
B36: 1.32.35-1 (antibody, human IgG1, kappa, V domains shown)
VH: B1 VH with L5V, A10E, S105T
VL: B28 VL
B37: 1.33.35-1 (antibody, human IgG1, kappa, V domains shown)
VH: B1 VH with L5V, A10E, T12K, E23K, S69T, V97T
VL: B28 VL

molecular target: HIV-1 envelope glycoprotein (gp120) of virus VS001 (HIV-1); assay: cell-based or functional assay

Binder	Neutralization IC50 [µg/mL]
B1	0.16
B2	0.45
B3	1.92
B4	1.5
B5	3.03
B6	0.56
B7	2.21
B8	2.51
B9	0.85
B10	0.47
B11	3.52
B12	2.4
B13	3.3
B14	0.39
B15	2.37
B16	0.22
B17	1.48
B18	0.3
B19	0.49
B20	0.27
B21	4.54
B22	2.1
B23	0.15
B24	2.41
B25	0.37
B26	4.38
B27	3

molecular target: HIV-1 envelope glycoprotein (gp120) of virus 7141 (HIV-1); assay: cell-based or functional assay

Binder	Neutralization IC50 [µg/mL]
B1	4.35
B2	5.13
B3	23.8
B4	15.5
B5	16.9
B6	13.2
B7	25.5
B8	5.04
B9	5.93
B10	5.08
B11	> 9.8
B12	20.2
B13	29.5
B14	6.92
B15	> 23
B16	2.56
B17	3.8
B18	5.65
B19	9.1
B20	1.58
B21	31.3
B22	7.08
B23	1.75
B24	24.5
B25	1.99
B26	6.28
B27	22.7

molecular target: HIV-1 envelope glycoprotein (gp120) of virus 92US727 (HIV-1); assay: cell-based or functional assay

Binder	Neutralization IC50 [µg/mL]
B1	3.54
B2	> 50
B3	> 50
B4	> 38
B5	> 50
B6	> 21
B7	> 50
B8	> 34
B9	> 50
B10	> 50
B11	> 9.8
B12	> 50
B13	> 50
B14	> 50
B15	> 23
B16	11.1
B17	> 50
B18	> 50
B19	> 33
B20	> 50
B21	> 50
B22	> 50
B23	13.1
B24	> 41
B25	> 50
B26	> 50
B27	> 50

molecular target: BSA (UniProt P02769); assay: single-point ELISA

Binder	ELISA (A450)
B28	0.06
B29	0.06
B30	0.06
B31	0.1
B32	0.06
B33	0.08
B34	0.06
B35	0.06
B36	0.06
B37	0.07
